Substitutions are numbered along the chain they refer to. Numbers in names are those of the source. Each block holds one binder with its values, some of them ahead of it.
Legend:
cynomolgus monkey IL-21 [1] = target: T1, cynomolgus monkey IL-21 (cynomolgus monkey, UniProt Q9HBE4 32-162 (human entry)); experiment: assay not named; cynomolgus monkey IL-21
T1 construct: not in a public database; also called Cyno IL-21; cynomolgous monkey IL-21

human IL-21 [2] = target: T2, human IL-21 (human, UniProt Q9HBE4 32-162); experiment: cell-based or functional assay
human IL-21 [3] = target: T2, human IL-21; experiment: assay not named; human IL-21
human IL-4 = target: T3, human IL-4 (human, UniProt P05112 25-153); experiment: ELISA, Ab327 captured on plate, biotinylated cytokine
T3 sequence (looked up): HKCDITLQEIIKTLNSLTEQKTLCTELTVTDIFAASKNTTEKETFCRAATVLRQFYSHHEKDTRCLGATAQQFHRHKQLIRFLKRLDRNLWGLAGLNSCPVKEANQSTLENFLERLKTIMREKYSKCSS
Method: (§1) The objective of this study was to determine the binding specificity of Ab327 to human IL-21 as compared with the other members of the common-gamma (γc) chain receptor cytokines. The cytokine receptor γc-chain family consists of six members, IL-2, IL-4, IL-7, IL-9, IL-15, and IL-21. All members of this family signal through receptor complexes that contain the γc subunit. The specificity of Ab327 for binding to other human γc chain cytokine family members was determined using an ELISA. Briefly, Ab327 was captured on an ELISA plate coated with goat anti-human kappa IgG. Cytokines labeled with biotin titrated from 100 nM-780 pM were then added to the plate for 1 hour at 37° C. and any bound cytokine was detected using Neutravidin labeled with alkaline phosphatase. Commercially available mouse monoclonal antibody to IL-2 and goat polyclonal antibodies to IL-4, IL-7, IL-9 and IL-15 captured with donkey anti-goat IgG gave positive signals after binding the biotinylated cytokines and detection with Neutravidin.

human IL-7 = target: T4, human IL-7 (human, UniProt P13232 26-177); experiment: as above
T4 sequence (looked up): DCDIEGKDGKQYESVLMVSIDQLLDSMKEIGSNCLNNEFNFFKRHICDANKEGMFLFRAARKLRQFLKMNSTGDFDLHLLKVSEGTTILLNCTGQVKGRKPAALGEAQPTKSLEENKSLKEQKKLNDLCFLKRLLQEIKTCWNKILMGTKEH
Method: as §1

human IL-15 = human IL-15 (human, UniProt P40933 49-162); experiment: as above
Method: as §1

human IL-2 = human IL-2 (human, UniProt P60568 21-153); experiment: as above
Method: as §1

human IL-9 = human IL-9 (human, UniProt P15248 19-144); experiment: as above
Method: as §1

rat IL-21 = rat IL-21 (rat, UniProt A3QPB9 18-146); experiment: KinExA solution equilibrium binding, 37 C, n=3
Method: (§2) Ab327 is an engineered, humanized monoclonal IgG4 antibody that binds and neutralizes human IL-21. The purpose of this study was to determine the binding affinity of Ab327 for human, cynomolgus monkey, mouse, rat, and rabbit IL-21 (the sequences are given below). […] KinExA solution equilibrium binding experiments were performed using a fixed antibody concentration protocol and 2-fold serial dilutions of IL-21. Samples were equilibrated at 37° C. for 6-36 hours prior to analysis. Free antibody in the equilibrated samples was detected using a Dylight 649-conjugated anti-human IgG Fc polyclonal antibody. The resulting percent free antibody versus antigen concentration data were fit to an “affinity, standard” binding model using the KinExA Pro software, and the best fit binding affinity value (KD) was determined
(§3) The average KD from three independent experiments along with the standard deviation (human, cynomolgus monkey, mouse, and rat) or from a single determination (rabbit IL-21) is summarized in Table 3 below (apparent solution equilibrium binding affinity (KD) of Ab327).

cynomolgus monkey IL-21 [4] = target: T1, cynomolgus monkey IL-21; experiment: KinExA solution equilibrium binding, 37 C, n=3
Method: as §2, §3

human IL-21 [5] = target: T2, human IL-21; experiment: KinExA solution equilibrium binding, 37 C, n=3
Method: as §2, §3

mouse IL-21 = mouse IL-21 (mouse, UniProt Q9ES17 18-146); experiment: KinExA solution equilibrium binding, 37 C, n=3
Method: as §2, §3

cynomolgus monkey IL-21 [6] = target: T1, cynomolgus monkey IL-21; experiment: cell-based or functional assay
human IL-21 [7] = target: T2, human IL-21; experiment: cell-based or functional assay; remark: listed apart in the source
human IL-21 [8] = target: T2, human IL-21; experiment: cell-based or functional assay; remark: listed apart in the source
human IL-21 [9] = target: T2, human IL-21; experiment: assay not named

T2 sequence (Q9HBE4 32-162): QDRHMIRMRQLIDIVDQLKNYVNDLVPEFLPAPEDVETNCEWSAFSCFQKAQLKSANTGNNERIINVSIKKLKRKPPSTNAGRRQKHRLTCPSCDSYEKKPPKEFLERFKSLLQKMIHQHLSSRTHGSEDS
T1 sequence (Q9HBE4 other isoform, or with tags, fused parts or gaps): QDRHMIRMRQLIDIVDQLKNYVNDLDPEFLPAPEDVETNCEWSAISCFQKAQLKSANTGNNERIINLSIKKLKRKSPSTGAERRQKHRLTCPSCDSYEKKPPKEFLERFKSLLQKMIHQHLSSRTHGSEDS
Sequence of rat IL-21 (A3QPB9 18-146): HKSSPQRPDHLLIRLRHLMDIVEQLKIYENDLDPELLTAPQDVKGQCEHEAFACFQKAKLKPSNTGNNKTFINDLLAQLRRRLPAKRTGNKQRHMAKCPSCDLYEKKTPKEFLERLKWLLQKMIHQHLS
Sequence of human IL-2 (P60568 21-153 limits assumed): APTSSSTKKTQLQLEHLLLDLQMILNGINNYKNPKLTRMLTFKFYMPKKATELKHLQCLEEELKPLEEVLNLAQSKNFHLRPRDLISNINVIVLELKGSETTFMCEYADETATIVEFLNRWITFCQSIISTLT
Sequence of human IL-9 (P15248 19-144 limits assumed): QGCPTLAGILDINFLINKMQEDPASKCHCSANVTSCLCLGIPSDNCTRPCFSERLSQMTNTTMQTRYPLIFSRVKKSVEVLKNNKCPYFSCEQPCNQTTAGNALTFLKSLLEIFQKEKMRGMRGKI
Sequence of human IL-15 (P40933 49-162 limits assumed): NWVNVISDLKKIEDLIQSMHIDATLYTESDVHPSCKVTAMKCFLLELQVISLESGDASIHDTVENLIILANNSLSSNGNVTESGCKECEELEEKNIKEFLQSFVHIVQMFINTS

Kd (cynomolgus monkey IL-21 [1]): ~0.5 pM
fold increase of plasma cells (CD38 high, IgD low), donor 1, 26.7 nM antibody (IL-21 without antibody: 176) (human IL-21 [2]): 11.7 fold
fold increase of plasma cells (CD38 high, IgD low), donor 2, 26.7 nM antibody (IL-21 without antibody: 114) (human IL-21 [2]): 3.38 fold
fold increase of plasma cells (CD38 high, IgD low), donor 3, 26.7 nM antibody (IL-21 without antibody: 47) (human IL-21 [2]): 7.81 fold
fold increase of plasma cells (CD38 high, IgD low), donor 4, 26.7 nM antibody (IL-21 without antibody: 68) (human IL-21 [2]): 6.87 fold
fold increase of plasma cells (CD38 high, IgD low), donor 5, 26.7 nM antibody (IL-21 without antibody: 22) (human IL-21 [2]): 3.64 fold
Kd (human IL-21 [3]): ~0.5 pM
binding result (human IL-4): no binding (tested: 100 nM)
binding result (human IL-7): no binding (tested: 100 nM)
binding result (human IL-15): no binding (tested: 100 nM)
binding result (human IL-2): no binding (tested: 100 nM)
binding result (human IL-9): no binding (tested: 100 nM)
Kd (rat IL-21): 230000 pM
Kd (cynomolgus monkey IL-21 [4]): 0.3 pM
Kd (human IL-21 [5]): 0.8 pM
Kd (mouse IL-21): 240000 pM
IC50, IM9 pan-STAT-luciferase reporter assay, IL-21 at 66.67 pM (cynomolgus monkey IL-21 [6]): 48.3 pM
IC50, IM9 pan-STAT-luciferase reporter assay, IL-21 at 66.67 pM (human IL-21 [7]): 46.7 pM
IC50, IL-21-induced proliferation of primary human B cells (3H-thymidine uptake) (human IL-21 [8]): 1150 pM
B1: Ab327 (antibody, human IgG4 S228P, kappa, F234A L235A, V domains shown)
VH: QVQLVQSGAEVKKPGASVKVSCKASGYTFTDYWMHWVRQAPGQGLEWMGLIDTSDVYTIYNQKFKGRVTMTRDTSTSTVYMELSSLRSEDTAVYYCARYGPLAMDYWGQGTLVTVSS
VL: DIQMTQSPSSLSASVGDRVTITCRASQDISNYLNWYQQKPGKAPKLLIYYTSRLHSGVPSRFSGSGSGTDFTLTISSLQPEDFATYYCQQFHTLRTFGGGTKVEIKR
modifications: N-linked glycosylation site at Asn294 of SEQ ID NO:3 may be glycosylated
notes: Engineered, humanized IgG4 (S225P, F231A/L232A) kappa antibody; expressed in HEK293 or CHO cells; also called final engineered humanized antibody; IL-21 antibody

Kd (human IL-21 [9]): ~0.5 pM
B2: humanized antibody with CDRs derived from antibody 15M2, utilizing the 1-46 heavy chain human framework and O2 human light chain framework (antibody, V domains shown)
VH: B1 VH with V56S
VL: DIQMTQSPSSLSASVGDRVTITCRASQDISNYLNWYQQKPGKAPKLLIYYTSRLHSGVPSRFSGSGSGTDFTLTISSLQPEDFATYYCQQFNTLRTFGGGTKVEIK
notes: Human IgG4 expression vectors; also called the humanized antibody

Kd (cynomolgus monkey IL-21 [1]): ~2 pM
Kd (human IL-21 [3]): ~2 pM
B3: engineered antibody containing both heavy chain Asp55Glu and light chain Asn92His mutations (antibody, V domains shown)
VH: B1 VH with D55E, V56S
VL: B2 VL with N92H
notes: Human IgG4
